In the nanobody polyreactivity screen of Harvey et al. (2022):

Assay: yeast display, Sf9 membrane polyspecificity reagent, FACS + sequencing; frameworks hold sequencing errors
How it was run: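 Galactose-induced (36–48 hours) yeast carrying a synthetic nanobody display library were exposed to 10% biotinylated, detergent-solubilized Sf9 membrane reagent at 4 °C for 1 hour. FACS followed streptavidin microbead enrichment, using low and high (top ~1%) gates for expression (anti-HA) and reagent binding (streptavidin). Colony PCR, MiSeq 2 × 250 sequencing and CDR-length filtering followed. Labels for polyreactivity reflect the gate of origin.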

Sequence	polyreactivity (PSR sort gate)
QDQLVESGGGLVQAGGSLRLSCAASGRTFYKYAMGWYRQAPGKERELVAAIRTGGGTSYADSVKGRFTISRDNAKNTVYLQMNSLKPEDTAVYYCNARGVYFWWRLDYWGQGTQVTVSS	low polyreactivity
QDQLVESGGGLVQAGGSLRLSCAASGRTIYQNAMGWYRQAPGKERELVAAISRSGGSTYYADSVKGRFTISRDNAKNTVYLQMNSLKPEDTAVYYCAADPRSYGGGYDYWGQGPQVTVSS	high polyreactivity
QDQLVESGGGLVQAGGSLRLSCAASGSIFFARYSMGWYTQAPGKERELVAAITRATSTTYADSVKGRFTISRDNAKNTVYLQMKSLKPEDTAVYYCNADPAYQFDYWGQGTQVTVSS	high polyreactivity
QDQLVESGGGLVQAGGSLRLSCAASGSIFFLYAMGWYRQAPGKERELVAAIRLSGGSTYYADSVKGRFTISRDNAKNTVYLQMNSLKPEDTAVYYCAAESAAASAVYSVEYDYWGQGTQVTVSS	low polyreactivity
QDQLVESGGGLVQAGGSLRLSCAASGSIFGKYTMGWYRQAPGKERELVAAISRSGSSTYYADSVKGRFTISRDNAKNTVYLQMNSLKPEDTAVYYCAAKFYYGVTSKFESWGQGTQVTVSS	high polyreactivity
QDQLVESGGGLVQAGGSLRLSCAASGSIFPRYDMGWYRQAPGKERELVAAITGSGSSTYYADSVKGRFSISRDNAMNTVYLQMNSLKPEDTAGYYCAARKSRPPFPPPFDYYWRQGTQVTVSS	low polyreactivity
QDQLVESGGGLVQAGGSLRLSCAASGSIFPYNAMAWSRQAPGTERELVAGITYNGGSTYYADSVKGRFTISRDNAKNTVYLQMNSLKREDTAVYYCAAAGRRAFYRYDHWGQGTQVTVSS	high polyreactivity
QDQLVESGGGLVQAGGSLRLSCAASGSIFRAYAMGRYRQPPGKERELVAAIIWTDGSTYYADSVKGRFTISRDNAKNTVYLQMNSLKPEDTAVYYCAKDSIARHNYWGQGTQVTLSS	low polyreactivity
QDQLVESGGGLVQAGGSLRLSCAASGSIFRYYDMGWSRQAPGKERELVAAISDSTGTTYYADSVKGRFTISRDNAKNTVYLQMNSLKPEDTAVYYCNTAYNRYWRPFNSLYYWGQGTQVTVSS	high polyreactivity
QDQLVESGGGLVQAGGSLRLSCAASGSIFSTNAMGWYRQAPGKERELVAAITYSGSRTYYADSVKGRFTISRDTAKNTVFLQMNSLKPEDTAVYYCAADTSWYSWWFDYWGQGTQVTVSS	low polyreactivity
QDQLVESGGGLVQAGGSLRLSCAASGSIFSYYAMGWYRHAPAKDRELVAAITGVGGTNYADSVKGRFTISRDNAKNTVYLQMNSLKPEDTAVYYCAARQYWRRYQYYYWGQGTQVTVSS	high polyreactivity
QDQLVESGGGLVQAGGSLRLSCAASGSIFTDNVMGWYRQATGKERELVAAITSTGGNTYYADSVKGRFTISRDNAKNTVYLQMNSLKREDTAVYYSNKDVARYPYGKFDYWGQGTQVTVSS	low polyreactivity
QDQLVESGGGLVQAGGSLRLSCAASGSIFVHYVMGWYRQAPGKERELVAAISSRGGGTFYADSVKGRFTISRDNAKNTVYLQMNSLKPEDTAVSYCARVPYFGSGAIRDYWGQGTQVTVSS	high polyreactivity
QDQLVESGGGLVQAGGSLRLSCAASGSIFWGYDMGWYRQAPGKEMELVARISYSGGSTSYADSVKGRFTISRDNAKNTVYLQMNSLKPEDTAVYYCAADEGGFWWTYPYDSWGQGTQVTVSS	low polyreactivity
QDQLVESGGGLVQAGGSLRLSCAASGSIFYVNTMGWYRQAHGKERELVADISSGDSTYYADSVKGRFTISRDNAKNTVYLQMNSLKPEDTAVYYCIADVYSWVSGKEGDYWGQGTQVTVSS	low polyreactivity
QDQLVESGGGLVQAGGSLRLSCAASGSIIPFYAMGWYRQAPGKERELVAAITYSGGSTFYADSVKGRFTISRDNAKNTVYLQMNSLKPEDTAVYYCNAVWRFGSSKYYYWGQGTQVTVSS	high polyreactivity
QDQLVESGGGLVQAGGSLRLSCAASGSIIVRNAMGWYRQAPGKERELVAAISRSGSSTYYADSVKGRFTISRDNAKITVFCQMNSLKPEDTAVYYCAKRRPALRWIYYYWGQGTQVTVSS	high polyreactivity
QDQLVESGGGLVQAGGSLRLSCAASGSIIYAYAMGWYRQAPGKERELVAAISWTGGSTYYADSVKGRFTISRDNAKNTVYLQMNCLKPEDTAVYYCAATYYQVASFYVTRYDYWGQGTQVTVSS	low polyreactivity
QDQLVESGGGLVQAGGSLRLSCAASGSNFRFNAMGWDTQAPGKEREFDAANSRSGGRTYYADSVKGRFRISRDNAKNTVYFQMNCLKPEDTAVFYCNAVWRFPIGRSAPRYDYWGQGTQVTVSS	high polyreactivity
QDQLVESGGGLVQAGGSLRLSCAASGSTDYTYDMGWYRQAPGKERELVASITSGGSTNYADSVKGRFTISRDNAKNTVYFQMNSVKPQDTAVYYCAVGTYTIYSGTLYDYKYYWGQGTQVTVSS	low polyreactivity
QDQLVESGGGLVQAGGSLRLSCAASGSTFGYARGWYRQAPGKERELVAAITSTGGSTYYADSVKGRFTISRDNAKNTVYLQMNSLKPEDTAVYYCAAQVGRVYVVYPVYKYGYWGQGTQVTVSS	high polyreactivity
QDQLVESGGGLVQAGGSLRLSCAASGSTFPLYAMGSYREAPGKERELVADITVSGGSTYYADSVKGRFTISRDNAKNTVYLQMNSLNPEDTAVYYCNADDRSPFPDYWWYPYDYDYGGQGTQVTVSS	low polyreactivity

Sequence	polyreactivity (PSR sort gate)
QDQLVESGGGLVQAGGSLRLSCAASGSTFPPYAMGWNRQAPGKERELVDTSTRIGGSTYYADSVKGRFTISRDNAKKTVYLQKNSLKPEDTALYYCTARRYQSYRYYYWGQGTQVTVSS	high polyreactivity
QDQLVESGGGLVQAGGSLRLSCAASGSTFSRNAMGWYRQAPGKERELVAAISWRGGRTYYADSVKGRFTISRDNAKNTVYLQMNSLKPEDTAVYYCAAEHKYRYDYWGQGTQVTVSS	low polyreactivity
QDQLVESGGGLVQAGGSLRLSCAASGSTFTYYAMGWYRQAPGKERELVAAIRNSDGTTYYADSVKGRFTLSRDTAKFTVYLQMNSLKPEDTAVYYCAAGPRGRWSTYDYWGQGTQVNVSS	low polyreactivity
QDQLVESGGGLVQAGGSLRLSCAASGSTFYIYAMGWYRQAPGQERELVARISGSRGSTYYADSVKGRFTISRDNAKNTVYLQMNSLKPEDTAVYYCAADDIYNYYQYYAFPYYRYDYWGQGTQVTVSS	low polyreactivity
QDQLVESGGGLVQAGGSLRLSCAASGSTLRGYAMGWYRQAPGKEREFVASITSSGSRTYADSVKGRFTISRDNAKNTVYLQMNSLKPEDTAVYYCAANRWPLKGYTSRYWGYWYNYWGQGTQVTVSS	high polyreactivity
QDQLVESGGGLVQAGGSLRLSCAASGTIFRGYTMGWYRQAPGKERELVAAISSSGGRTHYADSVKGRFTISRDNAKNTVYLQMNSLKPEDSAVYYCAADYYRTPKSGSSGLDYWGQGTQVTLSS	low polyreactivity
QDQLVESGGGLVQAGGSLRLSCAASGYIFRYYAMGWYRQAPGKERELVAAISWNGGRTYYADSVKGRFTISRDNAKNTVYLQMNSLKPEDTAVYYCNTYWDGAREYDYWGQGTQVTVSS	high polyreactivity
QDQLVESGGGLVQAGGSLRLSCAASGYIFSTYAMGWYRQAPGKERELVAAISSSGGSTYYADSVKGRFTISRDNAKNTVFLQMNSLKPEDTAVYYCYAGKHVRQRYDHWGQGTQVSVSS	high polyreactivity
QDQLVESGGGLVQAGGSLRLSCAASGYTFRYNAMGWYIQATGKERELVATITRGGSTNYADSVKGRFTISRDNAKNTVYLQMNSLKPEDTAVYYCNKEAAPLAFVPSYYGRDYWGQGTEVTVSS	low polyreactivity
QDQLVESGGGLVQAGGSLRLSCAASGYTFSYYAMGWYRQAPGKERELVARISWGGGSTYYADSVKGRFTISRDNAKNTVYLQMNSLKPEDTAVYYCNARDLGRDWYWPEDDYWGQGTQVTVSS	low polyreactivity
QDQLVESGGGLVQAGGSLRLSCAASRSIFYGYATRSYRQEPGKESELVAAISYSGDRTYYADSVKGRFTISRDNAKNTVYLQMNSLKPEDTAVYYCAAESRGVGAYYYRGQGTQVTVSS	high polyreactivity
QDQLVESGGGLVQAGGSLRLSCAASVRIFWLYAMGWYRQAPGKERELVAVISWSGGTTYYADSVKGRFTISRDNAKNTVYLQMNSLKPEDTAVYSCAAQVGFYTNYREFDYWGQGTQVTVSS	low polyreactivity
QDQLVESGGGLVQAGGSLRLSCAASVSIFGSYAMGWYRQAPGKERELVAGITSSGGSTYYADSVKGRFTISRDNAKNTVYLQMNSLKPEDTAVYYCNAPLGWWQFYYCGQGTQVTVSS	high polyreactivity
QDQLVESGGGLVQAGGSLRLSCAAYGNTIIRYAMGWYRQAPGKERELVAAIAYSGGRTYYADSVKGRFTISRDNAKNTVFLQMNSLKPEDTAVYYCNAASRYGGDYWGQGTQVTVSS	high polyreactivity
QDQLVESGGGLVQAGGSLRLSCAAYGRIFRANVMGWYRQAPGKERELVAAINWSGGSTYYADSVKGRFTISRDIAKNTVYLQMNSLKPEDTAVYYCAAAYKWFGEGRFYYWGQGTQVTVSS	high polyreactivity
QDQLVESGGGLVQAGGSLRLSCAGSGSTFKRYAMGWYRQAPGKDRELVAAISRRGGSTYYADSVKGRFTISRDNAKNTVYLQMNSLKPEDTAVYYCAARGTGNIYDYWGQGTQVTVSS	high polyreactivity
QDQLVESGGGLVQAGGSLRLSCAPSGRTFGGYSMGWYRQAPGKERELVASNTSGGSTYYADSVKGRFTISRDNAKNTVYLQMNSLKPEDTAVYYCAAVTYFETSSRAIPSNDYWGQGTQVTVSS	low polyreactivity
QDQLVESGGGLVQAGGSLRLSCAPSGRTFRYNAMGWYIQAPVKERELVAAINWNCGSTYYADSVKGRFTISRDNAKNTVYLQMNSLKPEDTAVYYCNADFYHRYDWGQGTQVTVSS	high polyreactivity
QDQLVESGGGLVQAGGSLRLSCASSGSIITQYAMGWYRQAPGKERELVAAITSGGSPYADSVKGRFTISRDNAKNTVYLQMNSLKPEDTADYYCATPYSYRGVTFNYWGQGTQVTVSS	low polyreactivity
QDQLVESGGGLVQAGGSLRLSCASSGSTFNIYAMGWYRQAPGKERELVAAITSRGTSTYYADSVKGRFTISRDNAKNTVYLQMNSLKPEDTAVYYCAAEVSGNYYRYNYWGQGTQVTVSS	high polyreactivity
QDQLVESGGGLVQAGGSLRLSCASSVRTIYIYAMGWYRHPPGKESEFVASITGRGTRTYYADSVKGRFTISRDNAKNTVYLQMNSLTQEDTAVYYCNARGKVQSSYDEDYWGQGTQVTVSS	high polyreactivity
